Laboratory results: article doi:10.1101/2024.05.02.592151 (bioRxiv, 2024)

Experiments:
[1] = target: SMC2 (in recombinant human condensin II) (human, UniProt O95347 1-1197); assay: cryo-EM structure
[2] = target: SMC4 (in recombinant human condensin II) (human, UniProt Q9NTJ3 2-1288); assay: cryo-EM structure
[3] = target: T1, CAP-D3 (in recombinant human condensin II) (human, UniProt P42695 1-1498); assay: cryo-EM structure
T1 sequence: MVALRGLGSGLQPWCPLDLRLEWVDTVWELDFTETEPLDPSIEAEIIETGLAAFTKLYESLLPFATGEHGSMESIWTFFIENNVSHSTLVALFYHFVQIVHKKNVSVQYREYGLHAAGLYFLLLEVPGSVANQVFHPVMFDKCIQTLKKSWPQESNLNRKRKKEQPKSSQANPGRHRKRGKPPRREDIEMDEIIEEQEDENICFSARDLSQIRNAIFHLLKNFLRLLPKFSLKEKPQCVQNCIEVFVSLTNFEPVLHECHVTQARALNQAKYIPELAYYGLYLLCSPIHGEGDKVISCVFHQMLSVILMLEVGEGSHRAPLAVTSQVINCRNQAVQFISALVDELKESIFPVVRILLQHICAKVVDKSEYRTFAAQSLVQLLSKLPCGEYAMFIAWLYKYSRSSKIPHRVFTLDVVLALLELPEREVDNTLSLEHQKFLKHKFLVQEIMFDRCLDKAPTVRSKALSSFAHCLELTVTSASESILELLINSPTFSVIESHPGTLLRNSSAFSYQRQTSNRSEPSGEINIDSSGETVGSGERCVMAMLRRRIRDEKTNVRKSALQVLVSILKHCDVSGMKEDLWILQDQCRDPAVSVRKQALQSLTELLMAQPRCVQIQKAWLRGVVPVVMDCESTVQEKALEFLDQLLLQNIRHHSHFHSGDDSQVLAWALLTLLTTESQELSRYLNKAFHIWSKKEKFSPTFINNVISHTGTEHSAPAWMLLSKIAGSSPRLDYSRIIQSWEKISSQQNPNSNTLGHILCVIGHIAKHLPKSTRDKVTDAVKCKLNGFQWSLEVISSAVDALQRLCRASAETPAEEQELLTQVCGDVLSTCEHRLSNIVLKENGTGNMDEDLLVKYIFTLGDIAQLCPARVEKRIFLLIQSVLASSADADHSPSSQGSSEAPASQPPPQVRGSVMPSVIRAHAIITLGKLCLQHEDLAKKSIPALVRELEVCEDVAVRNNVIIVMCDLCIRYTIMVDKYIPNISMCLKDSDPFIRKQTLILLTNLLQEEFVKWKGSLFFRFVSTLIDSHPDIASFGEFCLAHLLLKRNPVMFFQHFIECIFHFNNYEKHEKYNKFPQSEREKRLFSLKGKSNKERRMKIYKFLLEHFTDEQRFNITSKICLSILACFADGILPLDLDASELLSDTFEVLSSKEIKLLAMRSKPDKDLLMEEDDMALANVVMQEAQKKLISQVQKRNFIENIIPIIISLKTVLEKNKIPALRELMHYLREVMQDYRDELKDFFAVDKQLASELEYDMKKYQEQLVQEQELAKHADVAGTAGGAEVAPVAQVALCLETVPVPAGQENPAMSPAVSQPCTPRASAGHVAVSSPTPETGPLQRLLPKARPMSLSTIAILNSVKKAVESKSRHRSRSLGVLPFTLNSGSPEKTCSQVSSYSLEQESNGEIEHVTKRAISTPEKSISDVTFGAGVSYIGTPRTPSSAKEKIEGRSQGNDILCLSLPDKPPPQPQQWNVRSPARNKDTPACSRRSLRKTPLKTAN

[4] = target: T2, CAP-G2 (in recombinant human condensin II) (human, UniProt Q86XI2 1-1143); assay: cryo-EM structure
T2 sequence: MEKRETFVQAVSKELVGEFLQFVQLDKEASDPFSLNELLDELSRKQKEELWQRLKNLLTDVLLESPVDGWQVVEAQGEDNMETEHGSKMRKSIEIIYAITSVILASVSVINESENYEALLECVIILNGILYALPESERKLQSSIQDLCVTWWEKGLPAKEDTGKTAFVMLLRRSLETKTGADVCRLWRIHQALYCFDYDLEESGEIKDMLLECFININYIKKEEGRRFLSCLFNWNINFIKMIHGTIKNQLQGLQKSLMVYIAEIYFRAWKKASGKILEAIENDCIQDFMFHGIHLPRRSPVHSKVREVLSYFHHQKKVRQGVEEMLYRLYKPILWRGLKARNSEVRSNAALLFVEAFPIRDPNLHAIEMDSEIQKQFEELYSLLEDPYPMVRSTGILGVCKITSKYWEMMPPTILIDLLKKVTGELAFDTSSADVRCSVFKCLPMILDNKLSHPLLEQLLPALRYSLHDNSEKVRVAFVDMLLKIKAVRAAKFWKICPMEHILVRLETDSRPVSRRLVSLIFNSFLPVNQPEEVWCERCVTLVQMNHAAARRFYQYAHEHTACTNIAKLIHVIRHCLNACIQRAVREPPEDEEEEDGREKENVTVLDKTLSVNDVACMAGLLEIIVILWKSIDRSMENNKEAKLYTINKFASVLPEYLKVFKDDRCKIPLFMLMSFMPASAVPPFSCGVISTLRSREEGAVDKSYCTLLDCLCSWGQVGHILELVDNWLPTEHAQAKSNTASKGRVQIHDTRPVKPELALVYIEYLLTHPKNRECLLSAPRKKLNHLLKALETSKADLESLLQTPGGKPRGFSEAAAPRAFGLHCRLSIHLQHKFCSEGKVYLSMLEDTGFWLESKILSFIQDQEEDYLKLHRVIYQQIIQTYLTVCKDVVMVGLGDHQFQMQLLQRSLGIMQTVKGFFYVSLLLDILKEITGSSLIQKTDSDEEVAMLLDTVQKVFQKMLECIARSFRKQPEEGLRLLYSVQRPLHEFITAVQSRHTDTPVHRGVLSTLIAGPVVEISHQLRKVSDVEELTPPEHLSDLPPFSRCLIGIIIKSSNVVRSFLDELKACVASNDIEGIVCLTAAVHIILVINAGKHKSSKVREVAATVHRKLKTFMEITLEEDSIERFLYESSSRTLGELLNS

[5] = target: T2, CAP-G2 (in recombinant human condensin …); assay: cross-linking
[6] = target: condensin II pentamer (recombinant, human) (human, UniProt O95347;Q9NTJ3;Q6IBW4;P42695;Q86XI2); assay: cross-linking
Chain of condensin II pentamer (recombinant, human) (O95347 whole entry, chain 1 of 2): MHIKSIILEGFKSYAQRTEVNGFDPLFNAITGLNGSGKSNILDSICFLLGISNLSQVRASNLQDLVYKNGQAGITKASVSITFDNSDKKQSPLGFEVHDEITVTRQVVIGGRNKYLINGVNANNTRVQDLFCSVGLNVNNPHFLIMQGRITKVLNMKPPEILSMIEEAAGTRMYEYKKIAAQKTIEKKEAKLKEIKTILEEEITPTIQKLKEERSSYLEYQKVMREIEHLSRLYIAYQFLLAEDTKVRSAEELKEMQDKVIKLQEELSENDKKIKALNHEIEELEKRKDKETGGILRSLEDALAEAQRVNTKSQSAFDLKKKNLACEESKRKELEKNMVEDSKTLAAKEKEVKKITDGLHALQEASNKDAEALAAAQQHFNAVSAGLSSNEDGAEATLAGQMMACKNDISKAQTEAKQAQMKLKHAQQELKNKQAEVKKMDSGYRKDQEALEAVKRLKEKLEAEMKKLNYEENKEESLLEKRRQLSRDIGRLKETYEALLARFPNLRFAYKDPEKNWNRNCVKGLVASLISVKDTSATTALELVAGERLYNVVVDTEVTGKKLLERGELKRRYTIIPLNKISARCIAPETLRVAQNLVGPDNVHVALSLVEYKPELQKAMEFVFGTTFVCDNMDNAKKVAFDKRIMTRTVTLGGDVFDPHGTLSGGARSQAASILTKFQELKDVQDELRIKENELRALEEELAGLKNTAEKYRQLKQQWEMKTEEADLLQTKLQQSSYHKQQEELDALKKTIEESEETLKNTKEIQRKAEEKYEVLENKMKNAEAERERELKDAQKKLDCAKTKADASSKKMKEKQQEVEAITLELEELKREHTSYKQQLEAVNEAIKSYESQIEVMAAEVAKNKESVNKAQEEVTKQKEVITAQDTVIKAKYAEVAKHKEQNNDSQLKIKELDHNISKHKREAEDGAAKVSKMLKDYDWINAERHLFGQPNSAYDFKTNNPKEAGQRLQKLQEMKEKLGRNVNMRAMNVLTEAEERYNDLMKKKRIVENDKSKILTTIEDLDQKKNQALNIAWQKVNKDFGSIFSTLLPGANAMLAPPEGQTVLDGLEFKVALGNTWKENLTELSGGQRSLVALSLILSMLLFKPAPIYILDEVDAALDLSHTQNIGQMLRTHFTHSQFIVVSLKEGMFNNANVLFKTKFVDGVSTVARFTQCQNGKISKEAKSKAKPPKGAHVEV
Chain of condensin II pentamer (recombinant, human) (Q9NTJ3 2-1288, chain 2 of 2): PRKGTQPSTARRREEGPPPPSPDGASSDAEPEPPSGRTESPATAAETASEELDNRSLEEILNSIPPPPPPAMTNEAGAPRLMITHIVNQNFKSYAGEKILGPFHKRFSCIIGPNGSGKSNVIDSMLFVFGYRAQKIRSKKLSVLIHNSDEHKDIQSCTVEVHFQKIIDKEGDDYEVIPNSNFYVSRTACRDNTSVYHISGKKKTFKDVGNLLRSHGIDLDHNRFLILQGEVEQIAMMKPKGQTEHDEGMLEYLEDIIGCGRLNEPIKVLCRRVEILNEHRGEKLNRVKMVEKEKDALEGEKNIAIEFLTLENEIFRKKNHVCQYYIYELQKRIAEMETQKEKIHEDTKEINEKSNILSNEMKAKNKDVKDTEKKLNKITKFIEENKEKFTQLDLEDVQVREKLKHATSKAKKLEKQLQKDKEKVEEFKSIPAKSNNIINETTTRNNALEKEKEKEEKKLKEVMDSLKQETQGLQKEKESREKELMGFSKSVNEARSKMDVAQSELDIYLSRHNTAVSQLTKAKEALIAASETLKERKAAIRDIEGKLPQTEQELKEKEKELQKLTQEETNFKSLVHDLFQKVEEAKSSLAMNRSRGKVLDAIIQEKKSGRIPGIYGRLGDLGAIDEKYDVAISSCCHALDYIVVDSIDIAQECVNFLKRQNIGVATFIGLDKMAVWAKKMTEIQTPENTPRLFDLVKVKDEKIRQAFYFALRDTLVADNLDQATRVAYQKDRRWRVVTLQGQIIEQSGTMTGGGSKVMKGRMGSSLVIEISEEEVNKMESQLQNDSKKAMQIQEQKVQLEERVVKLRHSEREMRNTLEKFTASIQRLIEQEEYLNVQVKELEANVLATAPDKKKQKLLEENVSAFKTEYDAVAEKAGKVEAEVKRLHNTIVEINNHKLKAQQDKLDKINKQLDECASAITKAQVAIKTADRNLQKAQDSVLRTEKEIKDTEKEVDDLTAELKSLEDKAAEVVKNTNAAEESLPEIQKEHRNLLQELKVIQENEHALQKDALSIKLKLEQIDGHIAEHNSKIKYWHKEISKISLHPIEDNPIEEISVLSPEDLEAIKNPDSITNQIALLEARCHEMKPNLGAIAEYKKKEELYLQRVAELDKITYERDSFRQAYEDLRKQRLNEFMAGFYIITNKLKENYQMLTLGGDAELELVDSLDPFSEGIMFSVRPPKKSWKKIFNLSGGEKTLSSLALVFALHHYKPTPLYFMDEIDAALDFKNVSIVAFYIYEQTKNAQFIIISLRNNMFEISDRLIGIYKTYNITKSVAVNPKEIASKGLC

Measured: binding result

Chain of SMC4 (in recombinant human condensin II) (Q9NTJ3 2-1288): as the sequence (Q9NTJ3 2-1288, chain 2 of 2) above
Chain of SMC2 (in recombinant human condensin II) (O95347 whole entry): as the sequence (O95347 whole entry, chain 1 of 2) above

B1: CAP-H2 (in recombinant human condensin II) (natural protein)
chain: MEDVEARFAHLLQPIRDLTKNWEVDVAAQLGEYLEELDQICISFDEGKTTMNFIEAALLIQGSACVYSKKVEYLYSLVYQALDFISGKRRAKQLSSVQEDRANGVASSGVPQEAENEFLSLDDFPDSRTNVDLKNDQTPSEVLIIPLLPMALVAPDEMEKNNNPLYSRQGEVLASRKDFRMNTCVPHPRGAFMLEPEGMSPMEPAGVSPMPGTQKDTGRTEEQPMEVSVCRSPVPALGFSQEPGPSPEGPMPLGGGEDEDAEEAVELPEASAPKAALEPKESRSPQQSAALPRRYMLREREGAPEPASCVKETPDPWQSLDPFDSLESKPFKKGRPYSVPPCVEEALGQKRKRKGAAKLQDFHQWYLAAYADHADSRRLRRKGPSFADMEVLYWTHVKEQLETLRKLQRREVAEQWLRPAEEDHLEDSLEDLGAADDFLEPEEYMEPEGADPREAADLDAVPMSLSYEELVRRNVELFIATSQKFVQETELSQRIRDWEDTVQPLLQEQEQHVPFDIHTYGDQLVSRFPQLNEWCPFAELVAGQPAFEVCRSMLASLQLANDYTVEITQQPGLEMAVDTMSLRLLTHQRAHKRFQTYAAPSMAQP
binds: [1] | [2] | [3] | [4]

B2: MBP-MCPH1_(1-435) (domain or fragment)
chain: MAAPILKDVVAYVEVWSSNGTENYSKTFTTQLVDMGAKVSKTFNKQVTHVIFKDGYQSTWDKAQKRGVKLVSVLWVEKCRTAGAHIDESLFPAANMNEHLSSLIKKKRKCMQPKDFNFKTPENDKRFQKKFEKMAKELQRQKTNLDDDVPILLFESNGSLIYTPTIEINSRHHSAMEKRLQEMKEKRENLSPTSSQMIQQSHDNPSNSLCEAPLNISRDTLCSDEYFAGGLHSSFDDLCGNSGCGNQERKLEGSINDIKSDVCISSLVLKANNIHSSPSFTHLDKSSPQKFLSNLSKEEINLQRNIAGKVVTPDQKQAAGMSQETFEEKYRLSPTLSSTKGHLLIHSRPRSSSVKRKRVSHGSHSPPKEKCKRKRSTRRSIMPRLQLCRSEDRLQHVAGPALEALSCGESSYDDYFSPDNLKERYSENLPPESQL
binds: [5] | [6]
